The Kd is the free concentration of one partner at which half of the binding sites on the other are occupied at equilibrium, for simple one-to-one binding. For orientation: koff means the rate constant with which the complex falls apart. As usually defined, the kon is a measure of how fast the partners come together.

The target of assay [1] is T1, human brain natriuretic peptide, cyclic BNP (1-32c) (human, cyclic: ring closed by a disulfide bond between the two cysteine residues; biotinylated or acridinium-labelled in some assays).
T1 construct: also called hBNP; hBNP 1-32
As to the kind of experiment: surface plasmon resonance (BIAcore). For orientation: SPR reads the build-up and loss of mass on a sensor chip optically.

Assay [2] has as its target T1, human brain natriuretic peptide, cyclic …. The assay can be described thus: off-rate assay on yeast-displayed scFv; improvement of koff over 3-631-436 wt.
For assay [3] the target is unchanged. The assay can be described thus: off-rate assay on yeast-displayed scFv by flow cytometry: biotinylated cyclic BNP (1-32c), chase with unlabelled BNP 1-32c, SA:PE, first order decay fit.
Assay [4] has the same target. As to the kind of experiment: BIAcore SPR, cAb captured on goat anti-human Fc, BNP in solution, 25 C.
Description: The carboxymethyl-dextran biosensor is activated with an 8 minute injection of a 1:1 mixture of 0.4 M EDC and 0.1 NHS at 20 μL/minute. GAHFc in 10 mM sodium acetate (pH 5.0) is coupled to the activated surface with a 10 minute injection. The surface is then deactivated with 1 M ethanolamine pH 8.5 for 8 minutes followed by another 10 minute injection of GAHFc.
A frozen (−80° C.) aliquot of BNP in dH₂O at 100 μM is diluted into SPR Running Buffer to a concentration of 100 μM.
The sample solution is then switched back to SPR running buffer for another ˜7 hours. The surface is then regenerated with three 33 second pulses of 100 mM phosphoric acid at a flow rate of 100 μL/min.
Assay [5] shares this target. The assay can be described thus: KinExA, solution phase.
The target is the same in assay [6]. The assay can be described thus: Biacore SPR, antibody captured on goat anti-mouse Fc, BNP injected, 1:1 Langmuir fit.
Description: GAMFc in 10 mM sodium acetate (pH 5.0) is coupled to the activated surface with a 10 minute injection. The surface is then deactivated with 1 M ethanolamine pH 8.5 for 8 minutes followed by another 10 minute injection of GAMFc. This is followed with a biosensor conditioning of ten 60 second injections of 150 mM H₃PO₄ at a flow rate of 30 μL/min. ˜14 kRU, resonance units, of GAMFc is coupled to the biosensor in each flow cell.
After loading each Ab onto the biosensor, all flow cells are allowed to equilibrate for 5-6 minutes with SPR running buffer at a flow rate of 75 μL/min before a 150 μL injection of BNP or running buffer followed by 360 seconds of dissociation time. Subsequently, the flow rate is changed to 30-100 μL/min and the surface is then regenerated with three 33-60 second pulses of 100-150 mM phosphoric acid at a flow rate of 30-100 μL/min.

B1: 106.3 wt (Mouse IgG1) (antibody, V domains shown)
VH: QLVQSGPELRKPGETVKISCKGSGYTFTHYGINWVKQTPRKDLKWMGWINTHTGEPIYADDFKGRFAFSLETSANTAYLQINNLNNGDMGTYFCTRSHRFGLDYWGQGTSVTVSS
VL: DNVLTQSPPSLAVSLGQRATISCKASQSVDYNGDSYLNWYQQKPGQPPKFLIYAASNLESGIPARFSGSGSGTDFNLNIHPVEEEDAATYYCQQSNEDPFTFGSGTKLEIKR
notes: also called HB-12044
For the molecule B1, in assay [1], the affinity, expressed as Kd, was 0.018 nM; the koff turned out to be 0.00022 s⁻¹; the kon was 1.2e+07 M⁻¹ s⁻¹.

B2: 500-2 (scFv)
scFv (VH-linker-VL with V5 and 6His tags), displayed on yeast: QVQLQQPGAELVRPGASVKLSCKASGYTFTSYWMNWVKQRPEQGLEWIGRIDPYDSETHYNQKFKDKAILTVDKSSSTAFVQLTSLTSEDSAVYYCVSDGYWGAGTTVTVSSGPAKELTPLKEAKVSDVVMTQTPLTLSVTTGQPASISCKSSQSLLDSDGKTYLNWLFQRPGESPKLLIYWTTKLESGVPDRFTGSGSGTDFTLKISRVEAEDLGVYYCLQATHFPWTFGGGTKLEIKRAAALESRGPFEGKPIPNPLLGLDSTRTGHHHHHH
notes: selected by on/off-rate sorting; member of group m17
Regarding B2, the “Fold Improvement” value in assay [2] came out at 15 fold. The koff in assay [3] turned out to be 0.00032 s⁻¹.

B3: L2 8 (scFv)
scFv (VH-linker-VL with V5 and 6His tags), displayed on yeast: QVQLQQPGAELVRPGASVKLSCKASGYTFTSYWMNWVKQRPEQGLEWIGRIDPYDSETHYNQKFKDKAILTVDKSSSTAFVQLTSLTSEDSAVYYCVSDGYWGAGTTVTVSSGPAKELTPLKEAKVSDVVMTQTPLTLSVTTGQPASISCKSSQSLLDSDGKTYLNWLFQRPGESPKLLIYWMNKLESGVPDRFTGSGSGTDFTLKISRVEAEDLGVYYCLQATHFPWTFGGGTKLEIKRAAALESRGPFEGKPIPNPLLGLDSTRTGHHHHHH
notes: selected by equilibrium sorting; member of group m17
For the molecule B3, the “Fold Improvement” value in assay [2] came to 28 fold. The same molecule came in with a koff in assay [3] of 0.00017 s⁻¹.

B4: L2 10 (scFv)
scFv (VH-linker-VL with V5 and 6His tags), displayed on yeast: QVQLQQPGAELVRPGASVKLSCKASGYTFTSYWMNWVKQRPEQGLEWIGRIDPYDSETHYNQKFKDKAILTVDKSSSTAFVQLTSLTSEDSAVYYCVSDGYWGAGTTVTVSSGPAKELTPLKEAKVSDVVMTQTPLTLSVTTGQPASISCKSSQSLLDSDGKTYLNWLFQRPGESPKLLIYRTNKLESGVPDRFTGSGSGTDFTLKISRVEAEDLGVYYCLQATHFPWTFGGGTKLEIKRAAALESRGPFEGKPIPNPLLGLDSTRTGHHHHHH
notes: selected by off-rate sorting; member of group m17
With B4, the “Fold Improvement” value in assay [2] stood at 3 fold. In assay [3], the koff worked out at 0.0019 s⁻¹.

B5: L2 7 (scFv)
scFv (VH-linker-VL with V5 and 6His tags), displayed on yeast: QVQLQQPGAELVRPGASVKLSCKASGYTFTSYWMNWVKQRPEQGLEWIGRIDPYDSETHYNQKFKDKAILTVDKSSSTAFVQLTSLTSEDSAVYYCVSDGYWGAGTTVTVSSGPAKELTPLKEAKVSDVVMTQTPLTLSVTTGQPASISCKSSQSLLDSDGKTYLNWLFQRPGESPKLLIYWMTKLESGVPDRFTGSGSGTDFTLKISRVEAEDLGVYYCLQATHFPWTFGGGTKLEIKRAAALESRGPFEGKPIPNPLLGLDSTRTGHHHHHH
notes: as for B3
Consider B5, for which the “Fold Improvement” value in assay [2] worked out at 32 fold. The dissociation rate constant (koff) in assay [3] stood at 0.00015 s⁻¹.

B6: L2 1 (scFv)
scFv (VH-linker-VL with V5 and 6His tags), displayed on yeast: QVQLQQPGAELVRPGASVKLSCKASGYTFTSYWMNWVKQRPEQGLEWIGRIDPYDSETHYNQKFKDKAILTVDKSSSTAFVQLTSLTSEDSAVYYCVSDGYWGAGTTVTVSSGPAKELTPLKEAKVSDVVMTQTPLTLSVTTGQPASISCKSSQSLLDSDGKTYLNWLFQRPGESPKLLIYQNTKLESGVPDRFTGSGSGTDFTLKISRVEAEDLGVYYCLQATHFPWTFGGGTKLEIKRAAALESRGPFEGKPIPNPLLGLDSTRTGHHHHHH
notes: as for B3
As to B6, in assay [2], the “Fold Improvement” value was 19 fold. In assay [3], the koff stood at 0.00025 s⁻¹.

B7: 500-10 (scFv)
scFv (VH-linker-VL with V5 and 6His tags), displayed on yeast: QVQLQQPGAELVRPGASVKLSCKASGYTFTSYWMNWVKQRPEQGLEWIGRIDPYDSETHYNQKFKDKAILTVDKSSSTAFVQLTSLTSEDSAVYYCVSDGYWGAGTTVTVSSGPAKELTPLKEAKVSDVVMTQTPLTLSVTTGQPASISCKSSQSLLDSDGKTYLNWLFQRPGESPKLLIYVTDILESGVPDRFTGSGSGTDFTLKISRVEAEDLGVYYCLQATHFPWTFGGGTKLEIKRAAALESRGPFEGKPIPNPLLGLDSTRTGHHHHHH
notes: as for B2
B7: the “Fold Improvement” value in assay [2] turned out to be 10 fold. For the same molecule, in assay [3], the koff turned out to be 0.00049 s⁻¹.

B8: L2 4 (scFv)
scFv (VH-linker-VL with V5 and 6His tags), displayed on yeast: QVQLQQPGAELVRPGASVKLSCKASGYTFTSYWMNWVKQRPEQGLEWIGRIDPYDSETHYNQKFKDKAILTVDKSSSTAFVQLTSLTSEDSAVYYCVSDGYWGAGTTVTVSSGPAKELTPLKEAKVSDVVMTQTPLTLSVTTGQPASISCKSSQSLLDSDGKTYLNWLFQRPGESPKLLIYHTTKLESGVPDRFTGSGSGTDFTLKISRVEAEDLGVYYCLQATHFPWTFGGGTKLEIKRAAALESRGPFEGKPIPNPLLGLDSTRTGHHHHHH
notes: as for B3
B8: the “Fold Improvement” value in assay [2] amounted to 4 fold. For the same molecule, the koff in assay [3] worked out at 0.0014 s⁻¹.

B9: 500-1 (scFv)
scFv (VH-linker-VL with V5 and 6His tags), displayed on yeast: QVQLQQPGAELVRPGASVKLSCKASGYTFTSYWMNWVKQRPEQGLEWIGRIDPYDSETHYNQKFKDKAILTVDKSSSTAFVQLTSLTSEDSAVYYCVSDGYWGAGTTVTVSSGPAKELTPLKEAKVSDVVMTQTPLTLSVTTGQPASISCKSSQSLLDSDGKTYLNWLFQRPGESPKLLIYWMDKLESGVPDRFTGSGSGTDFTLKISRVEAEDLGVYYCLQATHFPWTFGGGTKLEIKRAAALESRGPFEGKPIPNPLLGLDSTRTGHHHHHH
notes: as for B2
With B9, the “Fold Improvement” value in assay [2] turned out to be 9 fold. The molecule further had a koff in assay [3] of 0.00053 s⁻¹.

B10: L2 9 (scFv)
scFv (VH-linker-VL with V5 and 6His tags), displayed on yeast: QVQLQQPGAELVRPGASVKLSCKASGYTFTSYWMNWVKQRPEQGLEWIGRIDPYDSETHYNQKFKDKAILTVDKSSSTAFVQLTSLTSEDSAVYYCVSDGYWGAGTTVTVSSGPAKELTPLKEAKVSDVVMTQTPLTLSVTTGQPASISCKSSQSLLDSDGKTYLNWLFQRPGESPKLLIYVTDKLESGVPDRFTGSGSGTDFTLKISRVEAEDLGVYYCLQATHFPWTFGGGTKLEIKRAAALESRGPFEGKPIPNPLLGLDSTRTGHHHHHH
notes: as for B4
Take B10: in assay [2], the “Fold Improvement” value came out at 10 fold. Besides, the koff in assay [3] came out at 0.0005 s⁻¹.

B11: wild-type 106.3 chimeric antibody (cAb) (antibody, human IgG1, V domains shown)
VH: QIQLVQSGPELRKPGETVKISCKGSGYTFTHYGINWVKQTPRKDLKWMGWINTHTGEPIYADDFKGRFAFSLETSANTAYLQINNLNNGDMGTYFCTRSHRFGLDYWGQGTSVTVSS
VL: DNVLTQSPPSLAVSLGQRATISCKASQSVDYNGDSYLNWYQQKPGQPPKFLIYAASNLESGIPARFSGSGSGTDFNLNIHPVEEEDAATYYCQQSNEDPFTFGSGTKLEIK
notes: Chimeric mouse variable domains on human IgG1/human kappa; also called anti-BNP WT/WT
In assay [4], B11 gave a Kd of 0.019 nM, a koff of 0.00015 s⁻¹ and a kon of 7.8e+06 M⁻¹ s⁻¹. In assay [5], this molecule registered a Kd of 0.0017 nM.

B12: 3-631-436 (mIgG2bκ, IgG name AM1) (antibody, V domains shown)
VH: QVQLQQPGAELVRPGASVKLSCKASGYTFTSYWMNWVKQRPEQGLEWIGRIDPYDSETHYNQKFKDKAILTVDKSSSTAFVQLTSLTSEDSAVYYCVSDGYWGAGTTVTVSS
VL: DVVMTQTPLTLSVTTGQPASISCKSSQSLLDSDGKTYLNWLFQRPGESPKLLIYVVSKLESGVPDRFTGSGSGTDFTLKISRVEAEDLGVYYCLQATHFPWTFGGGTKLEIKR
notes: recombinant wild-type variable domains on mouse IgG2b/kappa
For the molecule B12, in assay [6], the affinity, expressed as Kd, was 0.363 nM; the off-rate constant (koff) is 0.0029 s⁻¹; the kon came to 8.4e+06 M⁻¹ s⁻¹.
